Source: paper PMC8816346 (Science Advances, 2022)

Target: TOPBP1, purified recombinant (human, UniProt Q92547 1-1522)
Assay: pull-down

TOPBP1, purified recombinant, sequence (Q92547 whole entry): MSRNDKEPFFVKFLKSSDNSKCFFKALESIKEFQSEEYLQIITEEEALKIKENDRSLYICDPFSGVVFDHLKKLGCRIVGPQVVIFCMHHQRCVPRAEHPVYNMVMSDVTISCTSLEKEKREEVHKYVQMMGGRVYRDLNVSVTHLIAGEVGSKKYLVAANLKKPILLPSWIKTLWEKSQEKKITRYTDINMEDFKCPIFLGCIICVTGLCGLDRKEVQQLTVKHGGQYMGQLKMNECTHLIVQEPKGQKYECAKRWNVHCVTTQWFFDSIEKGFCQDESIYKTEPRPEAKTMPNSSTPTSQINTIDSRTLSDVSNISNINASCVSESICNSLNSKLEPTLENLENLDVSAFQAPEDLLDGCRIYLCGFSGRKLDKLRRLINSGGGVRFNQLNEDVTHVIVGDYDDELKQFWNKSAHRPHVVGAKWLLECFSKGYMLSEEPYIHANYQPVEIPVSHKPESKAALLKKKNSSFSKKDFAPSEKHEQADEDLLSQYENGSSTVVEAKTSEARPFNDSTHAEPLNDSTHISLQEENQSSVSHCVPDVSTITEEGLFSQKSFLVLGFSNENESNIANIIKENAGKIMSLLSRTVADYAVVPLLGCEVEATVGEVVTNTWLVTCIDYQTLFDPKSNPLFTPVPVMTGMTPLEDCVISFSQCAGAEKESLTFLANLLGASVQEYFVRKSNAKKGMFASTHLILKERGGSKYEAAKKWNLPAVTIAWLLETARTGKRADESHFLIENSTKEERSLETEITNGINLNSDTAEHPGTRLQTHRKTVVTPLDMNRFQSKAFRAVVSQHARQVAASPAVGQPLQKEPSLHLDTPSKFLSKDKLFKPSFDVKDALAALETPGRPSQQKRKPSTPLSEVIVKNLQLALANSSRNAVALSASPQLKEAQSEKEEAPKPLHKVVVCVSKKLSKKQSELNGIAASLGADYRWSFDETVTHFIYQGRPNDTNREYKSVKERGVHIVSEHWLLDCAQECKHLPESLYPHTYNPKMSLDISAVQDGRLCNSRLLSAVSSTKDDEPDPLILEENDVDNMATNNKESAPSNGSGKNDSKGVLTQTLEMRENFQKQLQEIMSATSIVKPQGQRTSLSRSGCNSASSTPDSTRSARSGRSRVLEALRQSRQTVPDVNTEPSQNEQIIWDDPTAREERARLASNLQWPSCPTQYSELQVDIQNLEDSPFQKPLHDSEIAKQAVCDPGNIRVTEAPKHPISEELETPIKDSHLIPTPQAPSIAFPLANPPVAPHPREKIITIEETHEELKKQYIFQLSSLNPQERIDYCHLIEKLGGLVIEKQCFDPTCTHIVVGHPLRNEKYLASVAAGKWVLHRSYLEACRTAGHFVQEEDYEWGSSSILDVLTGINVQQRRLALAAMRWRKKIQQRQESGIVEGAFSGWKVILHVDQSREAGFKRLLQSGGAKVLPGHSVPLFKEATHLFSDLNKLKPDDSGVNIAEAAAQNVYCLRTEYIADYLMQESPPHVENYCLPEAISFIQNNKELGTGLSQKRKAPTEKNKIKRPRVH

binding result: binds
B1: BLM^λ (BLM^P dephosphorylated with λ-phosphatase) (natural protein)
chain: not shown
